Laboratory results published in US20210347908A1 (ELPISCIENCE SUZHOU BIOPHARMA, published 2021).

B1: chimeric antibody 035c (antibody, V domains shown)
VH: QIQLVQSGPELRKPGETVKISCKASGYSFTNYAMNWVKQAPGKVLKWMGFINTYTGEPTYADDFKGRFAFSLETSASTAYLQINNLKNEDTATYFCTRTRGYYDFDGGAFDYWGQGTSLTVSS
VL: DIVMTQSQKFMSTSIGDRVSVTCKASQNVGTHLAWYQQKPGQSPKALIFSASYRYIGVPDRFTGSGSGTDFTLTITNVQSEDLAEYFCQQYNTYPLTFGAGTKLELK
B2: chimeric antibody 074c (antibody, V domains shown)
VH: QVQLQQPRAELVKPGASVMLSCKASGYTFSSYWIHWVRQGPGQGLEWIGLIHPNSGNTDCSETFKNKATLTVDTSSSTAYMQLSSLASEDSAVYYCARDGASYDWFVHWGQGTLVTVSA
VL: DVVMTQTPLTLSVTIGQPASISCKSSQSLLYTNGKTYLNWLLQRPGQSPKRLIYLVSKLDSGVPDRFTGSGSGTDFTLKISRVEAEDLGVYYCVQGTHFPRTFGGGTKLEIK
B3: chimeric antibody 022c (antibody, V domains shown)
VH: QIQLVQSGPELKKPGETVKISCKASGYTFTDYAMHWVKQAPGKGLKWMGWKNTETGESTYAEDFKGRFAFFLETSASTAYLQINNVKNEDTATYFCARGGYGSNYVMDYWGQGTSVIVSS
VL: DIQMTQSSSSFSVSLGDRVTITCKASEDIYNRLAWYQQKPGNAPRLLISGATSLETGVPSRFSGSGSGKDYTLSITSLQTEDVATYYCQQYWNSPRTFGGGTKLEIK
B4: chimeric antibody 050c (antibody, V domains shown)
VH: QIQLVQSGPELKKPGETVKISCKASGYTFTHYSMHWVKQAPGKGLKWMGWINTETAEPTYVDDFKGRFAFSLEASASTAFFQINNLKNEDTATYFCARGGLRQGDYWGQGTTLTVSS
VL: QIVLTQSPPIMSASPGEKVTLTCSATSSVSASYLYWFQQKPGSSPKLWIYSTSNLASGVPARFSGSGSGTSYSLTISNMEPADAASYFCHQWSSYPYTFGGGTKLEIK
B5: chimeric antibody 002c (antibody, V domains shown)
VH: EVKLEESGGGLVQPGGSMILSCVASGFTFRNYWMNWVRQSPERGLEWIAEITLKSNTYATHYAESVKGRFAISRDDSKSSFYLQMNDLRPEDTGIYYCTTFTKVVADWHLDVWGAGTTVTVSS
VL: DVLMTQTPLSLPVSLGDQASISCRSSQNIVHSNGNTYLEWYLQKPGQSPKLLIYKISNRFSGVPDRFSGSGSGTDFTLRISRVEAEDLGVYYCFQGSHVPFTFGSGTKLEIQ

Experiments:
[1] = target: T1, 6×His tagged human SIRPα v2 ECD recombinant protein (human); test: SPR (Biacore)
Procedure: (§1) Anti-SIRPα chimeric antibodies were characterized for binding affinity against human SIRPα v1, human SIRPα v2 and C57BL/6 mouse SIRPα using Biacore (GE). Briefly the antibodies to be tested were captured to CM5 chip (GE) using Human Antibody Capture Kit (GE). The antigens of 6×His tagged human SIRPα v1, human SIRPα v2 and C57BL/6 mouse SIRPα ECD recombinant proteins were serially diluted for multiple doses and injected at 30 μl/min for 180 s. Buffer flow was maintained for dissociation of 400 s. 3 M MgCl₂ was used for chip regeneration. The association and dissociation curves were fit with 1:1 binding model, and the Ka/Kd/KD values for each antibody were calculated.

[2] = target: T2, 6×His tagged human SIRPα v1 ECD recombinant protein (human, UniProt P78324 31-373); test: SPR (Biacore)
T2 construct: extracellular domain; bought; also called hSIRPα V1 (SPR antigen)
Procedure: as §1

[3] = target: T3, Fc tagged human SIRPα v2 ECD recombinant protein (human); test: ELISA
T3 construct: range 1-369; cloned range M1-R369 includes the signal peptide; also called hSIRPα V2
Summary of the method: (§2)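 Readout is OD 450 nm, with EC₅₀ derived from it, after TMB development for 15 min at RT and an HCl stop. Before that, antibodies were bound to coated Fc-tagged human SIRP ECD antigens for 1 h at 37 °C, followed by 1 h at 37 °C with HRP-labelled anti-mouse or anti-human IgG secondary.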

[4] = target: T4, Fc tagged human SIRPβ ECD recombinant protein (human, UniProt O00241 30-371); test: ELISA
T4 construct: range 1-371; cloned range includes the signal peptide; also called hSIRPβ; not shown: human IgG Fc region (hFc) of the pCPC vector
Summary of the method: as §2

[5] = target: T1, 6×His tagged human SIRPα v2 ECD …; test: SPR (Biacore), antibody captured
Procedure: as §1

[6] = target: T5, 6×His tagged C57BL/6 mouse SIRPα ECD recombinant protein (mouse (C57BL/6), UniProt P97797 32-373); test: SPR (Biacore), antibody captured
T5 construct: extracellular domain; bought; also called mSIRPα (C57BL/6); mouse SIRPα (C57BL/6) ECD
T5 sequence: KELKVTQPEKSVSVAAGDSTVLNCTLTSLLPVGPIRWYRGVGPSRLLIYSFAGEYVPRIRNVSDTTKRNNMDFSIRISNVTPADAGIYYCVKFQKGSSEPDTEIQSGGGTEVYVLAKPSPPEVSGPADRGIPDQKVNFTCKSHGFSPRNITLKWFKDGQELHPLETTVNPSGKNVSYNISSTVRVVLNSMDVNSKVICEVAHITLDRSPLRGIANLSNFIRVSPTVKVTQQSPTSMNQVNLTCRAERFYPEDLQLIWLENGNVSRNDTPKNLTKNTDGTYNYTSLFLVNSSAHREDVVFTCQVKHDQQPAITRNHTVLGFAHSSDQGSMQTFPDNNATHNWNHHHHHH
Procedure: as §1

[7] = target: T2, 6×His tagged human SIRPα v1 ECD …; test: SPR (Biacore), antibody captured
Procedure: as §1

T2 sequence (P78324 other isoform, or with tags, fused parts or gaps): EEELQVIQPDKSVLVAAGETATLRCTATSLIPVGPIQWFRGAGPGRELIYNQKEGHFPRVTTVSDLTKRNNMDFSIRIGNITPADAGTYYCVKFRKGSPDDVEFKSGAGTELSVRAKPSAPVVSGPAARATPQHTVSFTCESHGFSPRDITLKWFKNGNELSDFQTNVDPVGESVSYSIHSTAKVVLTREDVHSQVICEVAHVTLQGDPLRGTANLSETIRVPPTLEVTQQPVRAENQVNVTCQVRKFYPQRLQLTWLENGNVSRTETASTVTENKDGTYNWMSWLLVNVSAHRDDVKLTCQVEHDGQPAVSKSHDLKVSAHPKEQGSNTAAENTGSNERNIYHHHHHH
T1 sequence (chain, as listed by the source): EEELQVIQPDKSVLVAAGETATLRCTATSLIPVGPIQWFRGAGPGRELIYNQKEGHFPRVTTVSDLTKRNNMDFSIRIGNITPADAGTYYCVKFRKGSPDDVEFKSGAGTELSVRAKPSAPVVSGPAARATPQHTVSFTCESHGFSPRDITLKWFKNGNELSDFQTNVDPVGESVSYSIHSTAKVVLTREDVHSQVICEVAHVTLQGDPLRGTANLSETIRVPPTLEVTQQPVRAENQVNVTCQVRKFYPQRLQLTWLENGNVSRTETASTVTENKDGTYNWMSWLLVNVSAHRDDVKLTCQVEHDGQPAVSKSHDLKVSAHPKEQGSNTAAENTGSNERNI
T4 sequence (O00241 30-371 limits assumed, form in doubt): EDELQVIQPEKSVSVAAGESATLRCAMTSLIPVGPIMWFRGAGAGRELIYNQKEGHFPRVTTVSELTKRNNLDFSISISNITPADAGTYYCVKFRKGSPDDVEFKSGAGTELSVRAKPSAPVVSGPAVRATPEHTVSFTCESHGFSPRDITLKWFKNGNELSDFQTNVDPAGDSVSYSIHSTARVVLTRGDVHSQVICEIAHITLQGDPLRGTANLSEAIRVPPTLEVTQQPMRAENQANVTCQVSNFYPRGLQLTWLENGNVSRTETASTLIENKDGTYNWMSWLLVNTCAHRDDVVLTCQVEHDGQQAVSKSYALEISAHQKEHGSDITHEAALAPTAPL

Binder	Kd [1]	Kd [2]	EC50 [3]	EC50 [4]	Kd [5]	koff [5]	kon [5]	Kd [6]	koff [6]	kon [6]	Kd [7]	koff [7]	kon [7]	binding result [6]
B1	2.62 nM	1.11 nM	0.08 nM	0.08 nM	2.62 nM	0.000154 s⁻¹	59000 M⁻¹ s⁻¹	5270 nM	0.0247 s⁻¹	4690 M⁻¹ s⁻¹	1.11 nM	0.000203 s⁻¹	183000 M⁻¹ s⁻¹	–
B2	25.2 nM	4.4 nM	0.14 nM	0.11 nM	25.2 nM	0.000515 s⁻¹	20400 M⁻¹ s⁻¹	–	–	–	4.4 nM	0.000229 s⁻¹	52100 M⁻¹ s⁻¹	no binding
B3	25.6 nM	5.9 nM	0.11 nM	0.08 nM	25.6 nM	0.00144 s⁻¹	56100 M⁻¹ s⁻¹	–	–	–	5.9 nM	0.00074 s⁻¹	125000 M⁻¹ s⁻¹	no binding
B4	4.72 nM	3.07 nM	0.1 nM	0.08 nM	4.72 nM	0.000529 s⁻¹	112000 M⁻¹ s⁻¹	–	–	–	3.07 nM	0.000774 s⁻¹	252000 M⁻¹ s⁻¹	no binding
B5	28.3 nM	16.1 nM	0.06 nM	0.11 nM	28.3 nM	0.00146 s⁻¹	51600 M⁻¹ s⁻¹	–	–	–	16.1 nM	0.00148 s⁻¹	92000 M⁻¹ s⁻¹	no binding
